{
  "source": "patent US20230061604A1",
  "about": "(HIFIBIO HK, published 2023)",
  "binders": {"B1": {"name": "anti-OX40 antibody HFB10-1E1hG1 (antibody, human IgG1, kappa, V domains shown)", "VH": "not shown", "VL": "DIQMTQSPSSVSASVGDRVTITCRASQGISSWLAWYQQKPGKAPKLLIYAASSLQSGVPSRFSGSGSGTDFTLTISSLQPEDFATYYCQQANSFPLTFGGGTKLEIKR"}, "B2": {"name": "OX40L (trimeric OX40L recombinant protein) (ligand, UniProt P23510 51-183, looked up)", "chain": "QVSHRYPRIQSIKVQFTEYKKEKGFILTSQKEDEIMKVQNNSVIINCDGFYLISLKGYFSQEVNISLHYQKDEEPLFQLKKVRSVNSLMVASLTYKDKVYLNVTTDNTSLDDFHVNGGELILIHQNPGEFCVL", "notes": "Bought recombinant protein; also called OX40 ligand"}},
  "key": {"[1]": {"molecular_target": "T1, human OX40 protein expressed on the surface of cells (human, UniProt P43489 29-277)", "T1 sequence (looked up)": "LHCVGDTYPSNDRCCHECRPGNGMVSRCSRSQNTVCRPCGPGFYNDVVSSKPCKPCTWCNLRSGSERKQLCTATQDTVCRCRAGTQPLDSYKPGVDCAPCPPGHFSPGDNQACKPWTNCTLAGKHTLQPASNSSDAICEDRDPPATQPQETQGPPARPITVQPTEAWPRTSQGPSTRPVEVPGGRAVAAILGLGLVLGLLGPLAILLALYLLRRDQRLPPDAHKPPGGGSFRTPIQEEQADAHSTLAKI", "test": "cell-based or functional assay"}, "[2]": {"molecular_target": "T2, biotinylated OX40 recombinant protein (UniProt P43489 29-216, limits assumed, biotinylated (site not stated))", "T2 construct": "also called Biotin-OX40", "T2 sequence (looked up)": "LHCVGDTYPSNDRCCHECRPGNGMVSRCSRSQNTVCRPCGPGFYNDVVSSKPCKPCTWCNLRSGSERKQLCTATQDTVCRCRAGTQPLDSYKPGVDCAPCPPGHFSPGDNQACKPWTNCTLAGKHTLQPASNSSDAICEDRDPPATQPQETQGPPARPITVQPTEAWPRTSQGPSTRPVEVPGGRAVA", "test": "ELISA: OX40L coated, biotinylated OX40 titrated (x axis is its concentration in nM), OD 450nm"}},
  "data": [
    {"binder": "B1", "values": [
      {"measurement": "EC50 (MFI of GFP), NF-kb GFP Jurkat reporter cells, cross-linked with anti-human IgG", "setting": "[1]", "value": 2.9, "unit": "nM"},
      {"measurement": "EC50 of IL-2 secretion, primary CD4+ T cells pre-activated with anti-CD3 and anti-CD28, cross-linked", "setting": "[1]", "value": 0.2, "unit": "nM"}
    ]},
    {"binder": "B2", "values": [
      {"measurement": "EC50 (read off the curve)", "setting": "[2]", "value": "~0.5", "unit": "nM"},
      {"measurement": "EC50 (MFI of GFP), NF-kb GFP Jurkat reporter cells, without cross-linking", "setting": "[1]", "value": 45, "unit": "nM"}
    ]}
  ]
}
